System: mutant form of α-Gal A expressed in HEK-293 cells
Assay: HEK assay (GLP HEK / Migalastat Amenability Assay): α-Gal A activity in lysates of transiently transfected HEK-293 cells incubated with or without 10 μM migalastat
Format: cell-based, human
Conditions: for Absolute increase (% WT) / Relative increase: 10 μM migalastat versus baseline; for Baseline α-Gal A activity (% WT): absence of migalastat; for Baseline α-Gal A activity (% WT) / 10 μM migalastat α-Gal A activity (% WT): percentage of baseline wild-type α-Gal A activity; for Baseline α-Gal A activity (% WT) / Baseline α-Gal A activity / 10 μM migalastat α-Gal A activity / 10 μM migalastat α-Gal A activity (% WT): mean ± SEM; for Baseline α-Gal A activity / 10 μM migalastat α-Gal A activity: lysates of HEK-293 cells transiently transfected with the mutant form; for Baseline α-Gal A activity: incubated 5 days in absence of migalastat; for 10 μM migalastat α-Gal A activity: incubated 5 days with 10 μM migalastat; for 10 μM migalastat α-Gal A activity (% WT): with 10 μM migalastat, 5 days
In short: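 HEK-293 cells transiently transfected with mutant α-Gal A and incubated with or without 10 μM migalastat; lysate activity given as nmol free 4-MU released per mg protein per hour. Values are mean±SEM.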

Molecule	Absolute increase (% WT)	Relative increase	Baseline α-Gal A activity (% WT)	Baseline α-Gal A activity	10 μM migalastat α-Gal A activity	10 μM migalastat α-Gal A activity (% WT)
D335Y (protein) MQLRNPELHLGCALALRFLALVSWDIPGARALDNGLARTPTMGWLHWERFMCNLDCQEEPDSCISEKLFMEMAELMVSEGWKDAGYEYLCIDDCWMAPQRDSEGRLQADPQRFPHGIRQLANYVHSKGLKLGIYADVGNKTCAGFPGSFGYYDIDAQTFADWGVDLLKFDGCYCDSLENLADGYKHMSLALNRTGRSIVYSCEWPLYMWPFQKPNYTEIRQYCNHWRNFADIDDSWKSIKSILDWTSFNQERIVDVAGPGGWNDPDMLVIGNFGLSWNQQVTQMALWAIMAAPLFMSNDLRHISPQAKALLQDKDVIAINQDPLGKQGYQLRQGYNFEVWERPLSGLAWAVAMINRQEIGGPRSYTIAVASLGKGVACNPACFITQLLPVKRKLGFYEWTSRLRSHINPTGTVLLQLENTMQMSLKDLL	11.0 % WT	1.3	43 ± 1.7 % WT	19469 ± 982 nmol/mg/h	24732 ± 2214 nmol/mg/h	54.1 ± 3.5 % WT
N336Y (protein) MQLRNPELHLGCALALRFLALVSWDIPGARALDNGLARTPTMGWLHWERFMCNLDCQEEPDSCISEKLFMEMAELMVSEGWKDAGYEYLCIDDCWMAPQRDSEGRLQADPQRFPHGIRQLANYVHSKGLKLGIYADVGNKTCAGFPGSFGYYDIDAQTFADWGVDLLKFDGCYCDSLENLADGYKHMSLALNRTGRSIVYSCEWPLYMWPFQKPNYTEIRQYCNHWRNFADIDDSWKSIKSILDWTSFNQERIVDVAGPGGWNDPDMLVIGNFGLSWNQQVTQMALWAIMAAPLFMSNDLRHISPQAKALLQDKDVIAINQDPLGKQGYQLRQGDYFEVWERPLSGLAWAVAMINRQEIGGPRSYTIAVASLGKGVACNPACFITQLLPVKRKLGFYEWTSRLRSHINPTGTVLLQLENTMQMSLKDLL	16.6 % WT	1.3	66.3 ± 3.7 % WT	29615 ± 1640 nmol/mg/h	37475 ± 2540 nmol/mg/h	83 ± 4.4 % WT
N336S (protein) MQLRNPELHLGCALALRFLALVSWDIPGARALDNGLARTPTMGWLHWERFMCNLDCQEEPDSCISEKLFMEMAELMVSEGWKDAGYEYLCIDDCWMAPQRDSEGRLQADPQRFPHGIRQLANYVHSKGLKLGIYADVGNKTCAGFPGSFGYYDIDAQTFADWGVDLLKFDGCYCDSLENLADGYKHMSLALNRTGRSIVYSCEWPLYMWPFQKPNYTEIRQYCNHWRNFADIDDSWKSIKSILDWTSFNQERIVDVAGPGGWNDPDMLVIGNFGLSWNQQVTQMALWAIMAAPLFMSNDLRHISPQAKALLQDKDVIAINQDPLGKQGYQLRQGDSFEVWERPLSGLAWAVAMINRQEIGGPRSYTIAVASLGKGVACNPACFITQLLPVKRKLGFYEWTSRLRSHINPTGTVLLQLENTMQMSLKDLL	18.7 % WT	1.2	79.7 ± 3.8 % WT	32974 ± 2396 nmol/mg/h	40651 ± 2487 nmol/mg/h	98.4 ± 3.1 % WT
N336I (protein) MQLRNPELHLGCALALRFLALVSWDIPGARALDNGLARTPTMGWLHWERFMCNLDCQEEPDSCISEKLFMEMAELMVSEGWKDAGYEYLCIDDCWMAPQRDSEGRLQADPQRFPHGIRQLANYVHSKGLKLGIYADVGNKTCAGFPGSFGYYDIDAQTFADWGVDLLKFDGCYCDSLENLADGYKHMSLALNRTGRSIVYSCEWPLYMWPFQKPNYTEIRQYCNHWRNFADIDDSWKSIKSILDWTSFNQERIVDVAGPGGWNDPDMLVIGNFGLSWNQQVTQMALWAIMAAPLFMSNDLRHISPQAKALLQDKDVIAINQDPLGKQGYQLRQGDIFEVWERPLSGLAWAVAMINRQEIGGPRSYTIAVASLGKGVACNPACFITQLLPVKRKLGFYEWTSRLRSHINPTGTVLLQLENTMQMSLKDLL	23.0 % WT	2.1	20.7 ± 2.7 % WT	8544 ± 1083 nmol/mg/h	18303 ± 1404 nmol/mg/h	43.8 ± 1.6 % WT
N336T (protein) MQLRNPELHLGCALALRFLALVSWDIPGARALDNGLARTPTMGWLHWERFMCNLDCQEEPDSCISEKLFMEMAELMVSEGWKDAGYEYLCIDDCWMAPQRDSEGRLQADPQRFPHGIRQLANYVHSKGLKLGIYADVGNKTCAGFPGSFGYYDIDAQTFADWGVDLLKFDGCYCDSLENLADGYKHMSLALNRTGRSIVYSCEWPLYMWPFQKPNYTEIRQYCNHWRNFADIDDSWKSIKSILDWTSFNQERIVDVAGPGGWNDPDMLVIGNFGLSWNQQVTQMALWAIMAAPLFMSNDLRHISPQAKALLQDKDVIAINQDPLGKQGYQLRQGDTFEVWERPLSGLAWAVAMINRQEIGGPRSYTIAVASLGKGVACNPACFITQLLPVKRKLGFYEWTSRLRSHINPTGTVLLQLENTMQMSLKDLL	29.7 % WT	2.0	28.9 ± 1.3 % WT	12743 ± 709 nmol/mg/h	25898 ± 1374 nmol/mg/h	58.6 ± 2.3 % WT
F337V (protein) MQLRNPELHLGCALALRFLALVSWDIPGARALDNGLARTPTMGWLHWERFMCNLDCQEEPDSCISEKLFMEMAELMVSEGWKDAGYEYLCIDDCWMAPQRDSEGRLQADPQRFPHGIRQLANYVHSKGLKLGIYADVGNKTCAGFPGSFGYYDIDAQTFADWGVDLLKFDGCYCDSLENLADGYKHMSLALNRTGRSIVYSCEWPLYMWPFQKPNYTEIRQYCNHWRNFADIDDSWKSIKSILDWTSFNQERIVDVAGPGGWNDPDMLVIGNFGLSWNQQVTQMALWAIMAAPLFMSNDLRHISPQAKALLQDKDVIAINQDPLGKQGYQLRQGDNVEVWERPLSGLAWAVAMINRQEIGGPRSYTIAVASLGKGVACNPACFITQLLPVKRKLGFYEWTSRLRSHINPTGTVLLQLENTMQMSLKDLL	31.1 % WT	1.4	65.9 ± 4.1 % WT	29582 ± 2747 nmol/mg/h	42718 ± 2776 nmol/mg/h	97 ± 4.6 % WT
F337L (protein) MQLRNPELHLGCALALRFLALVSWDIPGARALDNGLARTPTMGWLHWERFMCNLDCQEEPDSCISEKLFMEMAELMVSEGWKDAGYEYLCIDDCWMAPQRDSEGRLQADPQRFPHGIRQLANYVHSKGLKLGIYADVGNKTCAGFPGSFGYYDIDAQTFADWGVDLLKFDGCYCDSLENLADGYKHMSLALNRTGRSIVYSCEWPLYMWPFQKPNYTEIRQYCNHWRNFADIDDSWKSIKSILDWTSFNQERIVDVAGPGGWNDPDMLVIGNFGLSWNQQVTQMALWAIMAAPLFMSNDLRHISPQAKALLQDKDVIAINQDPLGKQGYQLRQGDNLEVWERPLSGLAWAVAMINRQEIGGPRSYTIAVASLGKGVACNPACFITQLLPVKRKLGFYEWTSRLRSHINPTGTVLLQLENTMQMSLKDLL	20.8 % WT	1.4	57.8 ± 4.8 % WT	23197 ± 2254 nmol/mg/h	31963 ± 2641 nmol/mg/h	78.6 ± 3.1 % WT
N336D (protein) MQLRNPELHLGCALALRFLALVSWDIPGARALDNGLARTPTMGWLHWERFMCNLDCQEEPDSCISEKLFMEMAELMVSEGWKDAGYEYLCIDDCWMAPQRDSEGRLQADPQRFPHGIRQLANYVHSKGLKLGIYADVGNKTCAGFPGSFGYYDIDAQTFADWGVDLLKFDGCYCDSLENLADGYKHMSLALNRTGRSIVYSCEWPLYMWPFQKPNYTEIRQYCNHWRNFADIDDSWKSIKSILDWTSFNQERIVDVAGPGGWNDPDMLVIGNFGLSWNQQVTQMALWAIMAAPLFMSNDLRHISPQAKALLQDKDVIAINQDPLGKQGYQLRQGDDFEVWERPLSGLAWAVAMINRQEIGGPRSYTIAVASLGKGVACNPACFITQLLPVKRKLGFYEWTSRLRSHINPTGTVLLQLENTMQMSLKDLL	34.3 % WT	1.7	53.7 ± 2.8 % WT	23869 ± 1072 nmol/mg/h	39534 ± 2519 nmol/mg/h	88.1 ± 4.9 % WT
F337C (protein) MQLRNPELHLGCALALRFLALVSWDIPGARALDNGLARTPTMGWLHWERFMCNLDCQEEPDSCISEKLFMEMAELMVSEGWKDAGYEYLCIDDCWMAPQRDSEGRLQADPQRFPHGIRQLANYVHSKGLKLGIYADVGNKTCAGFPGSFGYYDIDAQTFADWGVDLLKFDGCYCDSLENLADGYKHMSLALNRTGRSIVYSCEWPLYMWPFQKPNYTEIRQYCNHWRNFADIDDSWKSIKSILDWTSFNQERIVDVAGPGGWNDPDMLVIGNFGLSWNQQVTQMALWAIMAAPLFMSNDLRHISPQAKALLQDKDVIAINQDPLGKQGYQLRQGDNCEVWERPLSGLAWAVAMINRQEIGGPRSYTIAVASLGKGVACNPACFITQLLPVKRKLGFYEWTSRLRSHINPTGTVLLQLENTMQMSLKDLL	19.0 % WT	1.9	21.7 ± 0.8 % WT	9557 ± 452 nmol/mg/h	17991 ± 960 nmol/mg/h	40.7 ± 1.6 % WT

Source: patent US11833164B2, “Methods of treating Fabry disease in patients having a mutation in the GLA gene” (Amicus Therapeutics, Inc., priority 2019, dated 2023)
